The source of these data is publication PMC5041490 (Nucleic Acids Research, 2016).

One experiment addresses GST-L3 (UniProt P39023 1-403). The experiment in a line: pull-down.
The target of another experiment is GST-L4 (UniProt P36578 1-427). The experiment in a line: pull-down.

Substitutions are numbered along the chain they refer to. Numbers in names are those of the source.

B1: His-G5(1–739) W14A (domain or fragment)
chain: MGQEPRTLPPSPNAYCARCSDAVPGGLFGFAARTSVFLVRVGPGAGESPGTPPFRVIGELVGHTERVSGFTFSHHPGQYNLCATSSDDGTVKIWDVETKTVVTEHALHQHTISTLHWSPRVKDLIVSGDEKGVVFCYWFNRNDSQHLFIEPRTIFCLTCSPHHEDLVAIGYKDGIVVIIDISKKGEVIHRLRGHDDEIHSIAWCPLPGEDCLSINQEETSEEAEITNGNAVAQAPVTKGCYLATGSKDQTIRIWSCSRGRGVMILKLPFLKRRGGGIDPTVKERLWLTLHWPSNQPTQLVSSCFGGELLQWDLTQSWRRKYTLFSASSEGQNHSRIVFNLCPLQTEDDKQLLLSTSMDRDVKCWDIATLECSWTLPSLGGFAYSLAFSSVDIGSLAIGVGDGMIRVWNTLSIKNNYDVKNFWQGVKSKVTALCWHPTKEGCLAFGTDDGKVGLYDTYSNKPPQISSTYHKKTVYTLAWGPPVPPMSLGGEGDRPSLALYSCGGEGIVLQHNPWKLSGEAFDINKLIRDTNSIKYKLPVHTEISWKADGKIMALGNEDGSIEIFQIPNLKLICTIQQHHKLVNTISWHHEHGSQPELSYLMASGSNNAVIYVHNLKTVIESSPESPVTITEPYRTLSGHTAKITSVAWSPHHDGRLVSASYDGTAQVWDALREEPLCNFRGHRGRLLCVAWSPLDPDCIYSGADDFCVHKWLTSMQDHSRPPQGKKSIELEKKRLSQPKA
For B1, the binding result with GST-L3 and with GST-L4 was “binds” throughout.

B2: His-G5(1–739) Y15A (domain or fragment)
chain: B1 chain with A14W, Y15A
With B2, the binding result with GST-L3 and with GST-L4 was “binds” in each case.
